Assays:
[1] = biological target: SHP2-C SH2; test: SH2 binding enrichment of the phosphorylated peptide, bacterial display (enrichment ratio); higher = better substrate or ligand; peptides without Tyr show the background
[2] = biological target: Grb2 SH2 (UniProt P62993); test: as above
[3] = biological target: c-Src SH2; test: as above
[4] = system: c-Src; test: phosphorylation enrichment, bacterial display (enrichment ratio); higher = better substrate or ligand; peptides without Tyr show the background
[5] = biological target: EPHB1 (UniProt P54762); test: as above
[6] = biological target: Fyn (UniProt P06241); test: as above
[7] = biological target: EPHB2 (UniProt P29323); test: as above
[8] = system: Fer (mouse); test: as above
[9] = biological target: FGFR1 (UniProt P11362); test: as above
[10] = biological target: Hck (UniProt P08631); test: as above
[11] = biological target: Jak2 (UniProt O60674); test: as above
[12] = system: AncSZ; test: as above
[13] = system: c-Abl (mouse); test: as above
[14] = biological target: MERTK (UniProt Q12866); test: as above
[15] = biological target: FGFR3 (UniProt P22607); test: as above
[16] = biological target: Fes (UniProt P07332); test: as above
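Wherever SH2 binding enrichment of the phosphorylated peptide, bacterial display is given: peptide library displayed on the E. coli surface as eCPX fusions, selected cells deep-sequenced, score is each peptide's frequency after selection divided by its frequency in the input.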
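Wherever phosphorylation enrichment, bacterial display is given: 11-residue human phosphosite peptides and single-mutation variants displayed on the E. coli surface, counted by deep sequencing, each peptide's frequency after selection divided by its frequency in the unselected input library; frequency after pTyr selection over input frequency; kinase dosed for 20-30% of maximal phosphorylation in three min.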

Chain of FGFR1 (P11362 whole entry, looked up): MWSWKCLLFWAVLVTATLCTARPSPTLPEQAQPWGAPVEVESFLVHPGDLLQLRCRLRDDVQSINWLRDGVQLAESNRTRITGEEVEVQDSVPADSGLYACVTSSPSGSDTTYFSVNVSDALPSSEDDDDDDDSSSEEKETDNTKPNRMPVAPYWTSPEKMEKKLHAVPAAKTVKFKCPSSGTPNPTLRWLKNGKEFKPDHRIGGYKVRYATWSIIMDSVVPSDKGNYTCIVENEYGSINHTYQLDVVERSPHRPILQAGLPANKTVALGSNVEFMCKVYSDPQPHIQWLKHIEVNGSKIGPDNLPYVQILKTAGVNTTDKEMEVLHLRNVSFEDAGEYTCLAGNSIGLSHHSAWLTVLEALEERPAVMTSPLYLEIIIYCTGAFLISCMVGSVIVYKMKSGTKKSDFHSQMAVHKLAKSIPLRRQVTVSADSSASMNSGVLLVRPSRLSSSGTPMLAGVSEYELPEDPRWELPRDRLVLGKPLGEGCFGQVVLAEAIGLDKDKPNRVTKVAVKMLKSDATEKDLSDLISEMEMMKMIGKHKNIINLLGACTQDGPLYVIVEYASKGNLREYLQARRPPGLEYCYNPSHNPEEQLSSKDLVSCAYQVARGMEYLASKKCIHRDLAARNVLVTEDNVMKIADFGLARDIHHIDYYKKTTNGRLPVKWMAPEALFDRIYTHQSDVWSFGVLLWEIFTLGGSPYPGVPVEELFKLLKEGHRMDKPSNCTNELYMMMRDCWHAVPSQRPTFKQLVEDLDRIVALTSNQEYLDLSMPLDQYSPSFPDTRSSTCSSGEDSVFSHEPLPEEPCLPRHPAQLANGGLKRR
Chain of Hck (P08631 whole entry, looked up): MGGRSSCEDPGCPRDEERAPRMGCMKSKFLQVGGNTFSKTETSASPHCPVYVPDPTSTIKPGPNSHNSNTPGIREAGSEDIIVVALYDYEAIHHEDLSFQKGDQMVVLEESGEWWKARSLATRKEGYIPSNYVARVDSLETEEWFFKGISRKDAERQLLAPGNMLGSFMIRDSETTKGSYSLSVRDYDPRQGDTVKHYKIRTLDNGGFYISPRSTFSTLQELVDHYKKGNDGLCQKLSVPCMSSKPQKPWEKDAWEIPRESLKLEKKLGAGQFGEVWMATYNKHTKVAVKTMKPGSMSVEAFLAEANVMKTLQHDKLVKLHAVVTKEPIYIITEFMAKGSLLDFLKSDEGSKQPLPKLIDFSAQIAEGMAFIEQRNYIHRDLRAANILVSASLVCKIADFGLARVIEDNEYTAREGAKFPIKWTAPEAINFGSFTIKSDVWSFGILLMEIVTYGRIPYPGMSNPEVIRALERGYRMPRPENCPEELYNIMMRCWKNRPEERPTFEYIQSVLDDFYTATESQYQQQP
Chain of EPHB1 (P54762 whole entry, looked up): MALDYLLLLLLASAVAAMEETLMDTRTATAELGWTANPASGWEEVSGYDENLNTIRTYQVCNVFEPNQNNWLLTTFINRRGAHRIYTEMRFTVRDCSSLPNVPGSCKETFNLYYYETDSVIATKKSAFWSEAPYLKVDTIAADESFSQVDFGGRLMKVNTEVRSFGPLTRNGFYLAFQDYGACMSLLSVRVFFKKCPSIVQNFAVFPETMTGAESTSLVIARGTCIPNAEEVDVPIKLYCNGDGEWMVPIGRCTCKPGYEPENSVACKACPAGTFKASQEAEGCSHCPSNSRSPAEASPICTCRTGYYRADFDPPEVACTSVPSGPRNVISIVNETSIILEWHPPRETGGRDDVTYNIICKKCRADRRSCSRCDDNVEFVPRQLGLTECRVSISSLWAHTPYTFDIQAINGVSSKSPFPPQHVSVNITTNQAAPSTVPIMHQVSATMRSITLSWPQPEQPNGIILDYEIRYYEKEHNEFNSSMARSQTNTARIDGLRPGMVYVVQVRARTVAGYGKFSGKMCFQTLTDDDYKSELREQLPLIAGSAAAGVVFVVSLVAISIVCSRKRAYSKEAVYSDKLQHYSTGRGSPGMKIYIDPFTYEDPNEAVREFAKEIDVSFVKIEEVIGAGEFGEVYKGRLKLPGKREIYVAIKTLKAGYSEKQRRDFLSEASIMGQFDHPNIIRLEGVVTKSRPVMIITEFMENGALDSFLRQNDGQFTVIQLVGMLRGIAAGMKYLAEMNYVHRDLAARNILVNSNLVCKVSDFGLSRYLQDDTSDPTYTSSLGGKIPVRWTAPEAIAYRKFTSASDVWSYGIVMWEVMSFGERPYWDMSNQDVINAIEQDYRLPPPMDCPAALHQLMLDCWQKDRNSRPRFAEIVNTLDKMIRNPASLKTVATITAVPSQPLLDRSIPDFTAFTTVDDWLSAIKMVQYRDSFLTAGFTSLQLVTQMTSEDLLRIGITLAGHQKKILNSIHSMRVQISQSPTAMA
Chain of MERTK (Q12866 whole entry, looked up): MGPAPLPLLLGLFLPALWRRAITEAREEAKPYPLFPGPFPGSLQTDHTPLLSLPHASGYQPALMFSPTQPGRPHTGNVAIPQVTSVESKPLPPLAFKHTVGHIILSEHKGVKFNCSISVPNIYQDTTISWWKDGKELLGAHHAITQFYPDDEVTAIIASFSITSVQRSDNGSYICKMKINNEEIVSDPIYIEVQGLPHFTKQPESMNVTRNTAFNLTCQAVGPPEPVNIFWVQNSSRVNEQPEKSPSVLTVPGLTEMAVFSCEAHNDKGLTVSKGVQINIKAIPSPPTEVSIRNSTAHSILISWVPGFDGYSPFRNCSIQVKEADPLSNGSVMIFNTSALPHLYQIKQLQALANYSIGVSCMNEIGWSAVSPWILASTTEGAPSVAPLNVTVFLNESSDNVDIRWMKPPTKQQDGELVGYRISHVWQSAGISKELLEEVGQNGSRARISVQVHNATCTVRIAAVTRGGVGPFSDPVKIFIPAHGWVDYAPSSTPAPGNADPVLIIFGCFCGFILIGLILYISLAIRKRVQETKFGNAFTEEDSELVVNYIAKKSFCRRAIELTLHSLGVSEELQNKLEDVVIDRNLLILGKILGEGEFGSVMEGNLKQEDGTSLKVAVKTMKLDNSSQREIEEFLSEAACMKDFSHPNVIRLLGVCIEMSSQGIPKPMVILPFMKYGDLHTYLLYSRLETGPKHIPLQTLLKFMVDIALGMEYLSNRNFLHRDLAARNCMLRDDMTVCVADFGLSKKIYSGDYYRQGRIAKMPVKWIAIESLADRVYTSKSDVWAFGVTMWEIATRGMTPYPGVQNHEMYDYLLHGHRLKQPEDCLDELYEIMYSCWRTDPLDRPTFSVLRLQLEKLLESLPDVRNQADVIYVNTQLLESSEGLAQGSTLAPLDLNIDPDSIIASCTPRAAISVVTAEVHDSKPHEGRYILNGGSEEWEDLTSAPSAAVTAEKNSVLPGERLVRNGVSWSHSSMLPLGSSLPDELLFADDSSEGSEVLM
Chain of Jak2 (O60674 whole entry, looked up): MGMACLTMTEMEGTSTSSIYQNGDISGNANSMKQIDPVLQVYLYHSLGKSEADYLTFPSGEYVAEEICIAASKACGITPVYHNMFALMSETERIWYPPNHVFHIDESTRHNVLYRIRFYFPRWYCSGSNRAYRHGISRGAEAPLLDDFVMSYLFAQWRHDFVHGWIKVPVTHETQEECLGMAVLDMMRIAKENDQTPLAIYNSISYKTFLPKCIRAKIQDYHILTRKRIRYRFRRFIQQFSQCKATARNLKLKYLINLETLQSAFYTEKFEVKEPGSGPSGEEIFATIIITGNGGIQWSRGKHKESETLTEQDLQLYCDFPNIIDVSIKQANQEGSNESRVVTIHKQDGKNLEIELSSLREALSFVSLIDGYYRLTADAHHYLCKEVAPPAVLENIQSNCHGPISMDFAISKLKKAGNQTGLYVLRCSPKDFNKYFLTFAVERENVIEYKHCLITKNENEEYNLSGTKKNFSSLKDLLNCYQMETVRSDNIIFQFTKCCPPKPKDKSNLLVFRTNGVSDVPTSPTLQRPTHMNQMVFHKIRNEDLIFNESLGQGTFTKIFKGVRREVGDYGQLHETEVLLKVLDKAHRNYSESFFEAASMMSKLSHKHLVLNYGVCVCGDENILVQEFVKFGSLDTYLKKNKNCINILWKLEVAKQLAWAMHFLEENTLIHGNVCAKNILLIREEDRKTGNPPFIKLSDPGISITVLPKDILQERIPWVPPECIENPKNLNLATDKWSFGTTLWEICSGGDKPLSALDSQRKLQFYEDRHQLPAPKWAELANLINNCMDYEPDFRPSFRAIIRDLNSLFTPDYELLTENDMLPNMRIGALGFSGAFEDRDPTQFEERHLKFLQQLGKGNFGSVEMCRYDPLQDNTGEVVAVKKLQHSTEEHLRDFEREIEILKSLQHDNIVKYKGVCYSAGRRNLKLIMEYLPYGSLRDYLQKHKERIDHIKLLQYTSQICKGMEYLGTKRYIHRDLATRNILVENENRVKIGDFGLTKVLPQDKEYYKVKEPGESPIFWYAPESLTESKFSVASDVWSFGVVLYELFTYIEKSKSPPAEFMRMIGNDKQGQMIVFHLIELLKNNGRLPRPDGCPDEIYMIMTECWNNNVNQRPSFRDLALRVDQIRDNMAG
Chain of Fyn (P06241 whole entry, looked up): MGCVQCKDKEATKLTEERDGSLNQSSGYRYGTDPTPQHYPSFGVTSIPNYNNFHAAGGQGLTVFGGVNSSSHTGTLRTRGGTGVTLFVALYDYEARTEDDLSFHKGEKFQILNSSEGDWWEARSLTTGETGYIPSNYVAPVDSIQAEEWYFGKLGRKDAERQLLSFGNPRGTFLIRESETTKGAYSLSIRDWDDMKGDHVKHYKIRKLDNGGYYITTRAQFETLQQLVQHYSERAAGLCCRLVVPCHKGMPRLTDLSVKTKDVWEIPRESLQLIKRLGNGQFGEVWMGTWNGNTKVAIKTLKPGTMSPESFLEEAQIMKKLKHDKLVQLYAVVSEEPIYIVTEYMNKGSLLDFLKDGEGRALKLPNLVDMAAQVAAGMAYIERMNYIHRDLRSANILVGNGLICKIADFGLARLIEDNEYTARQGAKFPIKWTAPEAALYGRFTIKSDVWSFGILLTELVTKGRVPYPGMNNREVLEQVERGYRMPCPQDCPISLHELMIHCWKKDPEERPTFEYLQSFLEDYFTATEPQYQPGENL

SH2 binding enrichment [1]	SH2 binding enrichment [2]	SH2 binding enrichment [3]	Sequence	phosphorylation enrichment [4]	phosphorylation enrichment [5]	phosphorylation enrichment [6]	phosphorylation enrichment [7]	phosphorylation enrichment [8]	phosphorylation enrichment [9]	phosphorylation enrichment [10]	phosphorylation enrichment [11]	phosphorylation enrichment [12]	phosphorylation enrichment [13]	phosphorylation enrichment [14]	phosphorylation enrichment [15]	phosphorylation enrichment [16]
0.724	0.708	0.699	QQLDEYQKLLD [LMNA_Y359_E361K]	0.642	1.27	0.724	1.28	0.905	0.65	0.742	1.72	1.53	1.03	0.81	1.2	1.85
0.809	0.673	0.563	QQTFTYDSGIH [JUP_Y22_YF]	0.95	1.35	1.18	1.33	0.896	0.984	1.85	0.985	1.8	0.999	0.793	1.42	1.78
1.27	2	1.09	QRCFVYFFSFL [PTEN_Y176_R173C_YF]	1.48	1.13	1.47	0.526	1.06	0.765	0.65	2.19	1.48	1.3	0.69	1.16	2.21
2.06	1.71	1.7	QRIHNYYEHRY [HCN4_Y554_D553N]	0.769	2.91	0.68	2.88	0.65	3.79	1.33	0.724	1.36	0.791	1.62	3.62	1.63
1.13	1.29	0.783	QRPFVYFFSFL [PTEN_Y176_R173P_YF]	0.748	0.783	0.721	0.703	0.707	0.789	0.426	1.33	1.23	0.967	0.664	1.39	1.54
0.854	0.96	0.658	QSKGIYFVQLE [MGAT4B_Y262_YF]	1.54	0.972	1.1	2.44	0.713	1.09	0.936	1.88	1.51	1.63	2.38	1.41	1.71
0.792	1.42	1.06	QYKGKYLAKHN [CASK_Y712_D710G]	0.519	0.705	0.658	0.699	0.819	1.01	0.752	0.472	0.984	0.934	0.835	1.29	0.979
0.44	0.829	0.454	RAFRRYLLKQK [SCN2A_Y1919_YF]	0.671	0.535	0.696	0.61	0.675	0.617	0.63	0.712	0.708	0.531	0.971	0.865	0.703
0.611	0.927	0.461	RAILNYIASKF [GSTA3_Y74_YF]	1	0.534	0.66	0.86	0.994	1.08	0.854	1.29	1.84	1.96	1.7	0.861	1.73
0.789	0.651	0.992	RAKLFYQEVPA [METTL11B_Y76]	0.385	2.91	0.716	1.9	1.64	2.88	1.67	0.547	1.95	0.513	6.6	2.39	1.02
2.22	1.34	1.5	RALCHYFKLNI [ETV6_Y401_R399C_YF]	0.667	0.691	0.54	0.885	0.719	0.783	0.776	1.27	1.33	1.09	0.634	0.975	1.37
1.11	1.12	0.935	RASGIYFVPKG [APBB1IP_Y340_YF]	4.75	5.1	6.15	2.37	0.731	1.71	8.1	2.91	1.17	34.3	13.8	1.71	1.2
0.606	1.16	0.537	RDGDRYFKGIV [DCX_Y64_N60D]	0.382	0.343	0.308	0.427	0.316	0.574	0.437	0.609	0.427	0.485	0.374	0.491	1.1
0.734	0.965	0.777	RDLRTYIMPAH [PNMT_Y256]	0.623	5.27	0.577	0.815	0.419	0.694	0.682	0.893	0.921	0.772	0.572	0.518	0.866
0.561	0.878	0.473	REGAKYVSHSA [ASS1_Y113_G117S]	0.667	0.414	0.454	0.468	0.504	0.473	0.457	0.691	0.764	0.818	0.593	0.854	0.785
0.54	0.765	0.443	REHTVYGEPRK [MAGEA4_Y240]	0.599	0.588	0.869	0.687	0.52	0.664	0.903	0.674	0.716	1.03	0.492	0.684	0.851
0.791	1.1	0.582	RESYKYLPSSL [CXXC1_Y218_F219L]	0.993	0.571	0.59	0.616	0.546	1.21	0.762	1.11	1.09	1.25	0.859	0.821	1.17
0.511	0.826	0.515	REVVNYVQKRS [RMI1_Y450_N455S]	0.564	0.459	0.581	0.35	0.525	0.65	0.484	0.468	0.981	0.519	0.68	0.835	1.01
1.45	1.3	1.28	RFLERYIYNRE [HLA-DPB1_Y57]	0.849	0.852	0.842	0.683	0.546	0.495	1.73	0.451	0.77	0.533	0.533	0.784	0.949
1.29	1.58	0.808	RFLFFYSFLLK [PTEN_Y178_V175L_YF]	1.41	0.984	0.79	0.574	0.765	0.885	0.631	1.53	2.12	1.51	0.782	0.754	1.78
0.634	0.542	0.4	RGEEPYTKKAL [TTC21B_Y160_K157E]	0.383	0.413	0.481	0.476	0.552	0.771	0.719	0.473	0.715	0.487	0.491	0.714	0.991
0.787	0.99	0.573	RGGWVYVLHPT [TRMT61A_Y67]	0.895	1.07	1.25	0.856	0.766	0.853	0.909	1.2	1.8	0.702	0.493	1.03	1.66
1.71	1.73	1.16	RGVAHYILQTF [SLC39A4_Y359_T357A]	0.743	0.718	0.636	0.724	0.554	0.456	0.685	1.33	1.48	1.13	0.583	0.628	1.34
0.735	0.985	0.569	RHAASYSSDSE [REPS1_Y116]	0.607	0.382	0.737	0.381	0.578	0.513	0.41	1.19	0.702	0.627	0.51	0.611	0.806
0.834	0.993	0.605	RHIEKYVDQGK [IRAK3_Y61]	0.687	0.577	0.533	0.318	0.593	0.512	0.74	0.857	0.771	0.783	0.59	0.633	0.833
0.742	0.954	0.577	RIAFQYGDTDL [MYBPC3_Y340_V342D]	0.381	0.743	0.81	0.825	0.689	0.703	0.432	0.784	1.1	0.735	0.544	0.737	1.24
0.655	0.71	0.518	RIVTTYIRERE [DNM2_Y463]	0.499	0.477	0.811	0.75	0.649	0.616	0.874	0.795	1.12	0.741	0.758	0.682	1.06
0.965	0.762	0.465	RLLRGYRQDAF [HLA-A_Y137_F133L_YF]	0.819	0.809	0.678	0.334	0.659	0.547	0.604	0.854	1.22	0.807	0.647	0.676	0.981
0.448	0.506	0.465	RLLVVYPWTRR [HBB_Y36_Q40R]	0.68	0.505	0.523	0.597	0.407	0.567	1.14	0.469	0.683	0.577	0.64	0.823	0.626

From the supplement of paper PMC10065799, “High-throughput profiling of sequence recognition by tyrosine kinases and SH2 domains using bacterial peptide display” (eLife, 2023)
